What was measured:
MT145K gp120 monomer = test: ELISA; parameters: unit not given beside the values
[1] = target: MT145K SOSIP.664 trimer (MT145 Q171K); test: ELISA; parameters: unit not given beside the values
[2] = target: CRF250 SOSIP trimer (HIV-1 (subtype AG)); test: method not stated

Substance	EC50 (MT145K gp120 monomer)	EC50 [1]	Kd [2]
CH01	10 ?	0.187 ?	
CH01 UCA BCR (antibody)			100 nM
PG9	0.792 ?		
